From patent publication US20040219615A1 (YEDA RESEARCH AND DEVELOPMENT, published 2004)
Values belong to the binder of their own block, whether it stands above or below them.

B8: clone #84 (other, UniProt Q99675 1-332, looked up)
chain: MAAVFLVTLYEYSPLFYIAVVFTCFIVTTGLVLGWFGWDVPVILRNSEETQFSTRVFKKQMRQVKNPFGLEITNPSSASITTGITLTTDCLEDSLLTCYWGCSVQKLYEALQKHVYCFRISTPQALEDALYSEYLYQEQYFIKKDSKEEIYCQLPRDTKIEDFGTVPRSRYPLVALLTLADEDDREIYDIISMVSVIHIPDRTYKLSCRILYQYLLLAQGQFHDLKQLFMSANNNFTPSNNSSSEEKNTDRSLLEKVGLSESEVEPSEENSKDCVVCQNGTVNWVLLPCRHTCLCDGCVKYFQQCPMCRQFVQESFALCSQKEQDKDKPKTL
notes: Isolated from the B-cell cDNA library with full-length RAP-2 as bait; The whole CGR19 entry is named; also called CGR19; Cell Growth Regulatory protein CGR19

Key:
[1] = target: T1, RAP-2 (RIP-associated protein-2), full-length (human, UniProt Q9Y6K9 1-419); assay: deletion analysis, self-association of RAP-2
T1 construct: Full-length RAP-2; The RIP screen first yielded a partial clone of about 1.5 Kb; also called 303; RAP-303

clone #84 = target: B8; assay: yeast two-hybrid test
[2] = target: T1, RAP-2 (RIP-associated protein-2), …; assay: binding assay tests (two-hybrid)
[3] = target: T2, TIP60 (histone acetyltransferase) (UniProt Q92993 1-513, limits assumed); assay: deletion analysis of RAP-2
T2 sequence (Q92993 whole entry): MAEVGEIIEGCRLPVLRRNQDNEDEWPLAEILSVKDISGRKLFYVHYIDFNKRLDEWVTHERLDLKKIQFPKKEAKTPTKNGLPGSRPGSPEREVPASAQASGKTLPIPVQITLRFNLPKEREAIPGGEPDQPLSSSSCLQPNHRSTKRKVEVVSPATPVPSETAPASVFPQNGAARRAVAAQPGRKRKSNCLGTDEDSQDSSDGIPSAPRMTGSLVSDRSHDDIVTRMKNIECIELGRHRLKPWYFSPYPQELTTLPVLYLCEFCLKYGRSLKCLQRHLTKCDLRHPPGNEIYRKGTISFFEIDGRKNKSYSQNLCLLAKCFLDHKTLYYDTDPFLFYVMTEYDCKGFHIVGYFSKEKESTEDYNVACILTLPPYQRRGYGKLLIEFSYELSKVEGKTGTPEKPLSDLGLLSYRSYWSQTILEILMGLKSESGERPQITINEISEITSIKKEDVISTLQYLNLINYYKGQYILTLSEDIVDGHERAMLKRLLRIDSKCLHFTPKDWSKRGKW

NIK = NIK (UniProt Q99558 1-947); assay: yeast two-hybrid test
NIK, sequence (Q99558 whole entry): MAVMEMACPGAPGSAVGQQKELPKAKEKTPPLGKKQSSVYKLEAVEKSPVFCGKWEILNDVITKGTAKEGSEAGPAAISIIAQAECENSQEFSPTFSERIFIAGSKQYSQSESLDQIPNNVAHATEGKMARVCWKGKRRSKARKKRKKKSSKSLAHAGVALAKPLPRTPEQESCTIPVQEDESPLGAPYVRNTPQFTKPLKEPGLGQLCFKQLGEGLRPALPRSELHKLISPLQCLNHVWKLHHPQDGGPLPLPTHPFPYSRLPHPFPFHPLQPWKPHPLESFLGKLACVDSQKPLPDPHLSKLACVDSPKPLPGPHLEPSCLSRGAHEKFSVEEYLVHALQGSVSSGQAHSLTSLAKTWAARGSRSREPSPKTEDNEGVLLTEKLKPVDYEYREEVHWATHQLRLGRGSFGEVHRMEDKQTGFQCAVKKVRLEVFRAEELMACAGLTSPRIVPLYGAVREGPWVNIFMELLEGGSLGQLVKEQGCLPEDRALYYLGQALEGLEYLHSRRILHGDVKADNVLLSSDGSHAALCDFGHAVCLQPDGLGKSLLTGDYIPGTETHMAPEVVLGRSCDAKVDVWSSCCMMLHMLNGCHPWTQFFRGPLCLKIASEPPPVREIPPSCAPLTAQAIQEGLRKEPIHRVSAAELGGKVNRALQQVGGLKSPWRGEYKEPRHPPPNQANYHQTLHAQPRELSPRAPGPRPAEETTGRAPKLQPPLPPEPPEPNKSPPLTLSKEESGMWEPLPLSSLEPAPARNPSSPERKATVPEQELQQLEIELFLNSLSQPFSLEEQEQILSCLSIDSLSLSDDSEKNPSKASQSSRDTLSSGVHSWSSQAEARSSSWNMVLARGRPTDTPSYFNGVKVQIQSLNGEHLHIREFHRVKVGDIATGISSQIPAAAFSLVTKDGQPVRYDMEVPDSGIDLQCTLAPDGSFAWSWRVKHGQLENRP

[4] = target: T2, TIP60 (histone acetyltransferase); assay: yeast two-hybrid test
TRAF2 = target: T3, TRAF2 (UniProt Q12933 1-501, limits assumed); assay: yeast two-hybrid test
T3 sequence (looked up): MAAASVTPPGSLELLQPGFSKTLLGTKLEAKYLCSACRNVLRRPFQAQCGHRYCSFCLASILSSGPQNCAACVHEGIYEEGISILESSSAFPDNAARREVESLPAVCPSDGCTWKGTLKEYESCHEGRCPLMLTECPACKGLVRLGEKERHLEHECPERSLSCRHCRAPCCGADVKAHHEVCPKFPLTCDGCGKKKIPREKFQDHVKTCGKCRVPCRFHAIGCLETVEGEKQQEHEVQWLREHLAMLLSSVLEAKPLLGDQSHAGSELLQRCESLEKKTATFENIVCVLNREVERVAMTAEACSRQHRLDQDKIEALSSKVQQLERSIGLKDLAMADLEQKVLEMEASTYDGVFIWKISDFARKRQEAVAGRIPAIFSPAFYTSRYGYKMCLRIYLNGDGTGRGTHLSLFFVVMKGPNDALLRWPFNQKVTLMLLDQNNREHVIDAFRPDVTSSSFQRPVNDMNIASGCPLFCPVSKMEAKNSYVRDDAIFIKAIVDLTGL

[5] = target: T4, RIP (receptor interacting protein) (human, UniProt Q13546 1-671); assay: yeast two-hybrid test
T4 construct: mature; Full-length RIP was the two-hybrid bait; In co-immunoprecipitation it was pulled down with anti-FLAG mAbs (FLAG tag implied); also called RIP protein
T4 sequence (looked up): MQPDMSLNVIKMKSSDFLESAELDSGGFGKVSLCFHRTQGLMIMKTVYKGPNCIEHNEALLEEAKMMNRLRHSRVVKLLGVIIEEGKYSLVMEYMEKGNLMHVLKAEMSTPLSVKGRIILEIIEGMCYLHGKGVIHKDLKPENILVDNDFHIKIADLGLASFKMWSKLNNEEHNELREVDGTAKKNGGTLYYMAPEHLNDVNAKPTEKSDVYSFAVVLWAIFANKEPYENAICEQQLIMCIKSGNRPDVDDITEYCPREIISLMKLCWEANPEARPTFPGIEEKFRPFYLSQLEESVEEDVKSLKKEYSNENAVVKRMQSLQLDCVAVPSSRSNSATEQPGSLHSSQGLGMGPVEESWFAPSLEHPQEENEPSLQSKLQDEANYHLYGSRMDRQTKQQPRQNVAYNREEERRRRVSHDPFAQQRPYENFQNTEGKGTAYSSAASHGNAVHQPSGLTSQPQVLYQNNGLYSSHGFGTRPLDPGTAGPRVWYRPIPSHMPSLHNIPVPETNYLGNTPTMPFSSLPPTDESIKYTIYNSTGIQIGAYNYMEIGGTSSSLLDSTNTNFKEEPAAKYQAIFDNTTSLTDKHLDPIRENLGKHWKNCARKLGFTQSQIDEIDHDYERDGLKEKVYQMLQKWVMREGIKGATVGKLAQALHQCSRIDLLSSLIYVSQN

B1: RAP-2 deletion fragment containing amino acids 218-416 (other)
chain: QAASEEKRKLAQLQVAYHQLFQEYDNHIKSSVVGSERKRGMQLEDLKQQLQQAEEALVAKQEVIDKLKEEAEQHKIVMETVPVLKAQADIYKADFQAERQAREKLAEKKELLQEQLEQLQREYSKLKASCQESARIEDMRKRHVEVSQAPLPPAPAYLSSPLALPSQRRSPPEEPPDFCCPKCQYQAPDMDTLQIHVME
binding result [1]: binds

B2: MORT-1 (other, UniProt Q13158 1-208, looked up)
chain: MDPFLVLLHSVSSSLSSSELTELKFLCLGRVGKRKLERVQSGLDLFSMLLEQNDLEPGHTELLRELLASLRRHDLLRRVDDFEAGAAAGAAPGEEDLCAAFNVICDNVGKDWRRLARQLKVSDTKIDSIEDRYPRNLTERVRESLRIWKNTEKENATVAHLVGALRSCQMNLVADLVQEVQQARDLQNRSGAMSPMSWNSDASTSEAS
notes: also called FADD
binding result (clone #84): no binding
binding result [2]: no binding

B4: RAP-2 deletion fragment containing amino acids 1-264 (other)
chain: MNRHLWKSQLCEMVQPSGGPAADQDVLGEESPLGKPAMLHLPSEQGAPETLQRCLEENQELRDAIRQSNQILRERCEELLHFQASQREEKEFLMCKFQEARKLVERLGLEKLDLKRQKEQALREVEHLKRCQQQMAEDKASVKAQVTSLLGELQESQSRLEAATKECQALEGRARAASEQARQLESEREALQQQHSVQVDQLRMQGQSVEAALRMERQAASEEKRKLAQLQVAYHQLFQEYDNHIKSSVVGSERKRGMQLEDLK
binding result [1]: binds

Binder: B8
binding result (NIK): no binding
binding result [4]: no binding
binding result (TRAF2): no binding
binding result [5]: no binding

Next, values leading:

binding result (clone #84): no binding
binding result [2]: no binding
B3: TRADD (other, UniProt Q15628 1-312, looked up)
chain: MAAGQNGHEEWVGSAYLFVESSLDKVVLSDAYAHPQQKVAVYRALQAALAESGGSPDVLQMLKIHRSDPQLIVQLRFCGRQPCGRFLRAYREGALRAALQRSLAAALAQHSVPLQLELRAGAERLDALLADEERCLSCILAQQPDRLRDEELAELEDALRNLKCGSGARGGDGEVASAPLQPPVPSLSEVKPPPPPPPAQTFLFQGQPVVNRPLSLKDQQTFARSVGLKWRKVGRSLQRGCRALRDPALDSLAYEYEREGLYEQAFQLLRRFVQAEGRRATLQRLVEALEENELTSLAEDLLGLTDPNGGLA

binding result [2]: no binding
B5: p75-R (p75 TNF receptor) (receptor, UniProt P20333 287-461, looked up)
chain: VKKKPLCLQREAKVPHLPADKARGTQGPEQQHLLITAPSSSSSSLESSASALDRRAPTRNQPQAPGVEASGAGEARASTGSSDSSPGGHGTQVNVTCIVNVCSSSDHSSQCSSQASSTMGDTDSSPSESPKDEQVPFSKEECAFRSQLETPETLLGSTEEKPLPLGVPDAGMKPS

binding result [3]: no binding
B6: RAP-2 deletion fragment spanning amino acids 95-309 (other)
chain: CKFQEARKLVERLGLEKLDLKRQKEQALREVEHLKRCQQQMAEDKASVKAQVTSLLGELQESQSRLEAATKECQALEGRARAASEQARQLESEREALQQQHSVQVDQLRMQGQSVEAALRMERQAASEEKRKLAQLQVAYHQLFQEYDNHIKSSVVGSERKRGMQLEDLKQQLQQAEEALVAKQEVIDKLKEEAEQHKIVMETVPVLKAQADIYK

binding result [2]: no binding
B7: p55-R (p55 TNF receptor) (receptor, UniProt P19438 235-455, looked up)
chain: RYQRWKSKLYSIVCGKSTPEKEGELEGTTTKPLAPNPSFSPTPGFTPTLGFSPVPSSTFTSSSTYTPGDCPNFAAPRREVAPPYQGADPILATALASDPIPNPLQKWEDSAHKPQSLDTDDPATLYAVVENVPPLRWKEFVRRLGLSDHEIDRLELQNGRCLREAQYSMLATWRRRTPRREATLELLGRVLRDMDLLGCLEDIEEALCGPAALPPAPSLLR
notes: also called TNFR-I
